Results reported in article PMC4453921, “Crystal structure of caspase recruiting domain (CARD) of apoptosis repressor with CARD (ARC) and its implication in inhibition of apoptosis” (Scientific Reports, 2015).

Target: the molecule itself
Test: SEC-MALS; Superdex 200 HR 10/30 equilibrated in appropriate buffer, coupled to three-angle light scattering and refractive index detectors, 0.2 ml/min

B1: ARC CARD domain (amino acids 1-95), wild type (domain or fragment, human, UniProt O60936 1-95, looked up)
chain: MGNAQERPSETIDRERKRLVETLQADSGLLLDALLARGVLTGPEYEALDALPDAERRVRRLLLLVQGKGEAACQELLRCAQRTAGAPDPAWDWQH
notes: Apoptosis repressor with caspase recruiting domain (ARC), human (208 amino acids), CARD domain, amino acids 1-95; Expression and purification are said to be described in detail elsewhere; A selenomethionine-substituted form was made for SAD phasing; also called CARD domain of ARC; caspase recruiting domain of apoptosis repressor with CARD; not shown: His-tag, C-terminal, kept
- stoichiometry N: 2
